Reference: PMC5413573

Target: RseP of E. faecalis LMG3358 (membrane-bound Zn-dependent site-2 protease) (E. faecalis) (UniProt Q9RPP2)
Sequence of UniProt Q9RPP2 (Q9RPP2 whole entry): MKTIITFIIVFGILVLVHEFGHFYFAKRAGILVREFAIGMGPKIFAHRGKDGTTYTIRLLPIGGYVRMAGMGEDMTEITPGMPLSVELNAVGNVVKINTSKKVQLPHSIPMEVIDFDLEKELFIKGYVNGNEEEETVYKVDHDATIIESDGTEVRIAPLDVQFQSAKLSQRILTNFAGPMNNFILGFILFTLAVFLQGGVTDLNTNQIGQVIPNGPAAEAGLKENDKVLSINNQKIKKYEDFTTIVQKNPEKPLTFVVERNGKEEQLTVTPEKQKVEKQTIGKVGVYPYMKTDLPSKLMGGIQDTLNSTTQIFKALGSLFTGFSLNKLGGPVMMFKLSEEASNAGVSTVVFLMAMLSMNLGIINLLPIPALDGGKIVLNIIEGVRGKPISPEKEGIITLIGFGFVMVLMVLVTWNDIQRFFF

Substance | MIC (nM) of the bacteriocin against S. pneumoniae ds220 induced to express E. faecalis rseP (microtiter plate growth inhibition; non-induced cells and cells without rseP >4500 nM) [nM] | MIC (nM) of the bacteriocin against S. pneumoniae ds220 induced to express E. faecalis rseP (microtiter plate growth inhibition; non-induced cells and cells without rseP >5500 nM) [nM]
Enterocin EJ97 (peptide) | 18 | –
Enterocin K1 (peptide) | – | 700
